IntAct's records for PubMed 26245371

Assays:
epas1_mouse Epas1 = epas1_mouse Epas1 (UniProt P97481)
arnt_mouse Arnt [1] = target: arnt_mouse Arnt (UniProt P53762)
arnt_mouse Arnt [2] = target: arnt_mouse Arnt (UniProt P53762); remark: listed apart in the source

Sequence of Hif1a, Q61221-1 (Q61221 whole entry): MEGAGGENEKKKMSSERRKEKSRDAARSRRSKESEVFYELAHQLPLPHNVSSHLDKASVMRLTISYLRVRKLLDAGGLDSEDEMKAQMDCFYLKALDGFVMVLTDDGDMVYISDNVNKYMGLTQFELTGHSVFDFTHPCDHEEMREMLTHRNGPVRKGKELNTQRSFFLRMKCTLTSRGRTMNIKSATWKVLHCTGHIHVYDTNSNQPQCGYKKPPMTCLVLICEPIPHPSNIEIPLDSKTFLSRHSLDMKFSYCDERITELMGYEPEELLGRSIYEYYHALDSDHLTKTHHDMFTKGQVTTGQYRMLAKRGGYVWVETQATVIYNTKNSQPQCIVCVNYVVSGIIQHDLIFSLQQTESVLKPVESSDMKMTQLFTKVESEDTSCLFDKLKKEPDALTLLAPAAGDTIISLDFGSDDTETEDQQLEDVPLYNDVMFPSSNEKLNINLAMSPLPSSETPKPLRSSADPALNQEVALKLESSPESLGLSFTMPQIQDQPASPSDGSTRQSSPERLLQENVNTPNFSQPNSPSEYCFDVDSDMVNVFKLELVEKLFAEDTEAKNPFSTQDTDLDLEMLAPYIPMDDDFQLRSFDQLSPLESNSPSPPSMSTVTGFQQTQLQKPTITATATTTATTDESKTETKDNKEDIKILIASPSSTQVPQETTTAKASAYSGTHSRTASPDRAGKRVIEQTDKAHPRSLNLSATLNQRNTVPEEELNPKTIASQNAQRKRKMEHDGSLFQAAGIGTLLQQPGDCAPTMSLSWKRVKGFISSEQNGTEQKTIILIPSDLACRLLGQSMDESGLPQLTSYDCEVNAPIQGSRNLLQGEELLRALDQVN
Sequence of Hypoxia-inducible factor 1-alpha (Mus musculus), Q61221-1 R170A (Q61221 whole entry R170A): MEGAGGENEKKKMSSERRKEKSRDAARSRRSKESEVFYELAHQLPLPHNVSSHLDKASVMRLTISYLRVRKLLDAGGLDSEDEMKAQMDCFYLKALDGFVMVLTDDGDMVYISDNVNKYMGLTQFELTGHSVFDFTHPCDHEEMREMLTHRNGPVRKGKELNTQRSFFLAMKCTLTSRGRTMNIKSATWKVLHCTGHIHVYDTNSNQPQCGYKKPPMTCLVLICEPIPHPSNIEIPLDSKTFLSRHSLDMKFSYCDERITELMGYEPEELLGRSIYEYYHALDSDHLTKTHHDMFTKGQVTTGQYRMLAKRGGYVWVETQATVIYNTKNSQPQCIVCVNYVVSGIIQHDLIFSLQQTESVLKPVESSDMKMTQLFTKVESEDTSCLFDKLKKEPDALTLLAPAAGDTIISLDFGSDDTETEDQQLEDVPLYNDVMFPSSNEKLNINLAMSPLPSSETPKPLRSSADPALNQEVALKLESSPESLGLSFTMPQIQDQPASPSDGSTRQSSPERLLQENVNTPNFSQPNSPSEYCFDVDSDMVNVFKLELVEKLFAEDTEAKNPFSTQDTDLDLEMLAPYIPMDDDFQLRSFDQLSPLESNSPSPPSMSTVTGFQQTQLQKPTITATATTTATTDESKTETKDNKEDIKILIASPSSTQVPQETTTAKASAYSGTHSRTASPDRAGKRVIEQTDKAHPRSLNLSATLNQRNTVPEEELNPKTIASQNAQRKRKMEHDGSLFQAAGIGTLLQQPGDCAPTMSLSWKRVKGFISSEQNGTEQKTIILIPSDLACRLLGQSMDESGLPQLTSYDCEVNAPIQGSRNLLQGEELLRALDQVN
Sequence of Hypoxia-inducible factor 1-alpha (Mus musculus), Q61221-1 R170A;V191D (Q61221 whole entry R170A/V191D): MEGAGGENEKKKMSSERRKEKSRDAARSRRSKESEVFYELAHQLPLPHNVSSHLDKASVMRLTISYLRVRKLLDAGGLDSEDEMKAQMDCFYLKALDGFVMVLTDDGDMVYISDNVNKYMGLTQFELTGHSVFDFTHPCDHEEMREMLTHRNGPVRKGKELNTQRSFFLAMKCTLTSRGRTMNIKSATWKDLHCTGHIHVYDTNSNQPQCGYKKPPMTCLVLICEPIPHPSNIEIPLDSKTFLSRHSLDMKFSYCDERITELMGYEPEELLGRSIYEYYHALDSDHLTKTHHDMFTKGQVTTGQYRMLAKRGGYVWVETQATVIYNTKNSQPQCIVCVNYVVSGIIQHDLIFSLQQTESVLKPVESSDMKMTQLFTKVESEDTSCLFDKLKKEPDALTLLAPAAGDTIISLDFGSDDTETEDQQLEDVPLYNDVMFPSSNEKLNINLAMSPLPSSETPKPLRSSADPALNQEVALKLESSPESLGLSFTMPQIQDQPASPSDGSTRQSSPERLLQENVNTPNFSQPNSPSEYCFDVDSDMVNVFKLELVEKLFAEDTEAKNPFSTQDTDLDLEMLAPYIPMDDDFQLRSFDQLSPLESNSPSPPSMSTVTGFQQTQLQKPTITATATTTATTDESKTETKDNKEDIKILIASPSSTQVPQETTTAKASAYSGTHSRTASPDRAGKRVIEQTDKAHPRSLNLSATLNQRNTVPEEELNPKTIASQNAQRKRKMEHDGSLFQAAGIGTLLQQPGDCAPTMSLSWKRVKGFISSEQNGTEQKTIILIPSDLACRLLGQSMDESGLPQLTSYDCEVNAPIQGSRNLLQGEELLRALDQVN
Sequence of Hypoxia-inducible factor 1-alpha (Mus musculus), Q61221-1 V191D (Q61221 whole entry V191D): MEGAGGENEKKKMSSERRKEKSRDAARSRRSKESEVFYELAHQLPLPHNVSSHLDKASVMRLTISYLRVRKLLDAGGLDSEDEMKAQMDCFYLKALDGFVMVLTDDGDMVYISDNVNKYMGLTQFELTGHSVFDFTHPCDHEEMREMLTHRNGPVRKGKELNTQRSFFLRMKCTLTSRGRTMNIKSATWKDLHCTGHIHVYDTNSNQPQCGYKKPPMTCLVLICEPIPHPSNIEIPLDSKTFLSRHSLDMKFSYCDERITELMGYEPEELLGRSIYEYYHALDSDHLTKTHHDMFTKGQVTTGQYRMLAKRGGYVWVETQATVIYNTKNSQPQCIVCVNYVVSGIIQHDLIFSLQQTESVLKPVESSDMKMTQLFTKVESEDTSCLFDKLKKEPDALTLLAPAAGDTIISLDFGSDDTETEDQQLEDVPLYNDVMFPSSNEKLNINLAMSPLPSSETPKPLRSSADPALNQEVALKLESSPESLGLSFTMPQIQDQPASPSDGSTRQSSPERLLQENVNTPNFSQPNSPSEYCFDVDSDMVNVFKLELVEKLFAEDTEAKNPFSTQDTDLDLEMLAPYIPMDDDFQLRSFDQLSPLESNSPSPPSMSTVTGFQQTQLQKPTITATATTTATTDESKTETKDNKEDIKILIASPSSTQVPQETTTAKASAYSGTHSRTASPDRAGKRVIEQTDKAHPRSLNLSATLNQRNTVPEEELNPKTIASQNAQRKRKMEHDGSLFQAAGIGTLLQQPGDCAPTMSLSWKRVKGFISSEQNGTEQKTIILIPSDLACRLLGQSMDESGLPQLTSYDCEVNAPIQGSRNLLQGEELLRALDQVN

Substance: Aryl hydrocarbon receptor nuclear translocator (Mus musculus), P53762 I264D;V305D
- effect of a mutation on the interaction (epas1_mouse Epas1): decreasing interaction strength
- effect of a mutation on the interaction (Hif1a, Q61221-1): decreasing interaction strength

Substance: Aryl hydrocarbon receptor nuclear translocator (Mus musculus), P53762 L112E;L132E
- effect of a mutation on the interaction (epas1_mouse Epas1): disrupting interaction strength
- effect of a mutation on the interaction (Hif1a, Q61221-1): disrupting interaction strength

Substance: Aryl hydrocarbon receptor nuclear translocator (Mus musculus), P53762 L112E
- effect of a mutation on the interaction (epas1_mouse Epas1): disrupting interaction strength
- effect of a mutation on the interaction (Hif1a, Q61221-1): disrupting interaction strength

Substance: Aryl hydrocarbon receptor nuclear translocator (Mus musculus), P53762 I264D
- effect of a mutation on the interaction (epas1_mouse Epas1): disrupting interaction strength
- effect of a mutation on the interaction (Hif1a, Q61221-1): decreasing interaction strength

Substance: Endothelial PAS domain-containing protein 1 (Mus musculus), P97481 V192D
- effect of a mutation on the interaction (arnt_mouse Arnt [1]): decreasing interaction strength

Substance: Aryl hydrocarbon receptor nuclear translocator (Mus musculus), P53762 R266A
- effect of a mutation on the interaction (epas1_mouse Epas1): decreasing interaction strength

Substance: Aryl hydrocarbon receptor nuclear translocator (Mus musculus), P53762 V305D
- effect of a mutation on the interaction (epas1_mouse Epas1): decreasing interaction strength
- effect of a mutation on the interaction (Hif1a, Q61221-1): decreasing interaction strength

Substance: Endothelial PAS domain-containing protein 1 (Mus musculus), P97481 R171A
- effect of a mutation on the interaction (arnt_mouse Arnt [1]): decreasing interaction strength

Substance: Aryl hydrocarbon receptor nuclear translocator (Mus musculus), P53762 R366A
- effect of a mutation on the interaction (epas1_mouse Epas1): decreasing interaction strength
- effect of a mutation on the interaction (Hif1a, Q61221-1): decreasing interaction strength

Substance: Endothelial PAS domain-containing protein 1 (Mus musculus), P97481 H194A
- effect of a mutation on the interaction (arnt_mouse Arnt [1]): decreasing interaction strength

Substance: Aryl hydrocarbon receptor nuclear translocator (Mus musculus), P53762 L132E
- effect of a mutation on the interaction (epas1_mouse Epas1): disrupting interaction strength
- effect of a mutation on the interaction (Hif1a, Q61221-1): disrupting interaction strength

Substance: Aryl hydrocarbon receptor nuclear translocator (Mus musculus), P53762 V136D
- effect of a mutation on the interaction (epas1_mouse Epas1): disrupting interaction strength
- effect of a mutation on the interaction (Hif1a, Q61221-1): disrupting interaction strength

Substance: Endothelial PAS domain-containing protein 1 (Mus musculus), P97481 R171A;V192D
- effect of a mutation on the interaction (arnt_mouse Arnt [1]): disrupting interaction strength

Substance: Hypoxia-inducible factor 1-alpha (Mus musculus), Q61221-1 R170A;V191D
- effect of a mutation on the interaction (arnt_mouse Arnt [2]): decreasing interaction strength

Substance: Aryl hydrocarbon receptor nuclear translocator (Mus musculus), P53762 A171D
- effect of a mutation on the interaction (epas1_mouse Epas1): disrupting interaction strength
- effect of a mutation on the interaction (Hif1a, Q61221-1): decreasing interaction strength

Substance: Hypoxia-inducible factor 1-alpha (Mus musculus), Q61221-1 V191D
- effect of a mutation on the interaction (arnt_mouse Arnt [2]): decreasing interaction strength

Substance: Aryl hydrocarbon receptor nuclear translocator (Mus musculus), P53762 R366A;N448A
- effect of a mutation on the interaction (epas1_mouse Epas1): disrupting interaction strength
- effect of a mutation on the interaction (Hif1a, Q61221-1): disrupting interaction strength

Substance: Aryl hydrocarbon receptor nuclear translocator (Mus musculus), P53762 L167E
- effect of a mutation on the interaction (epas1_mouse Epas1): disrupting interaction strength
- effect of a mutation on the interaction (Hif1a, Q61221-1): decreasing interaction strength

Substance: Aryl hydrocarbon receptor nuclear translocator (Mus musculus), P53762 I168D
- effect of a mutation on the interaction (epas1_mouse Epas1): disrupting interaction strength
- effect of a mutation on the interaction (Hif1a, Q61221-1): disrupting interaction strength

Substance: Aryl hydrocarbon receptor nuclear translocator (Mus musculus), P53762 L167E;A171D
- effect of a mutation on the interaction (epas1_mouse Epas1): disrupting interaction strength
- effect of a mutation on the interaction (Hif1a, Q61221-1): decreasing interaction strength

Substance: Endothelial PAS domain-containing protein 1 (Mus musculus), P97481 F169D
- effect of a mutation on the interaction (arnt_mouse Arnt [1]): decreasing interaction strength

Substance: Hypoxia-inducible factor 1-alpha (Mus musculus), Q61221-1 R170A
- effect of a mutation on the interaction (arnt_mouse Arnt [2]): decreasing interaction strength
